# Source: publication PMC5039624 (Scientific Reports, 2016)
# Bridge positions count the residues as written; N and C are the ends. Peptide text beside a SMILES is read from it.
# T1: VSDK E45A (UniProt Q9YDF8 19-160, E45A)
# T1 sequence: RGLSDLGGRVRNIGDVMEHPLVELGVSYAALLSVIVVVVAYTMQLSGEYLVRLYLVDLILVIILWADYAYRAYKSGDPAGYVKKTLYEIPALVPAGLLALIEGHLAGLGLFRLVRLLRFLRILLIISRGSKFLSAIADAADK
# T2: VSDK R120A (UniProt Q9YDF8 19-160, R120A)
# T2 sequence: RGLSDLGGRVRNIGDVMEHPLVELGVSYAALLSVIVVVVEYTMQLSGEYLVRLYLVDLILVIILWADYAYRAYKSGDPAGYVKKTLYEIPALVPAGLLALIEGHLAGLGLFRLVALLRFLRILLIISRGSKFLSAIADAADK
# T3: VSDK Q49A (UniProt Q9YDF8 19-160, Q49A)
# T3 sequence: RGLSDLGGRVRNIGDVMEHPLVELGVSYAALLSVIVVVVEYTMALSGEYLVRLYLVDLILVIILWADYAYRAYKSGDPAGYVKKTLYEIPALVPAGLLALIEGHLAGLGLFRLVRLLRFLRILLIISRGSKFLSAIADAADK
# T4: VSDK T47A (UniProt Q9YDF8 19-160, T47A)
# T4 sequence: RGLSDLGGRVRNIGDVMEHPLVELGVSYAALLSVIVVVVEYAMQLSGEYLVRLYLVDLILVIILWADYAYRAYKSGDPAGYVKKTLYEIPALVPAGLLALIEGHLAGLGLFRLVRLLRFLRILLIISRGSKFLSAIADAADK
# T5: VSDK Y46A (UniProt Q9YDF8 19-160, Y46A)
# T5 sequence: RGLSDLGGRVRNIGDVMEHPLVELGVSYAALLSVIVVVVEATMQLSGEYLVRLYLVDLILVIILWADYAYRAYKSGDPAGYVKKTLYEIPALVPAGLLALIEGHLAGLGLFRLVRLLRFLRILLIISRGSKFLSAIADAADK
# T6: VSDK E107A (UniProt Q9YDF8 19-160, E107A)
# T6 sequence: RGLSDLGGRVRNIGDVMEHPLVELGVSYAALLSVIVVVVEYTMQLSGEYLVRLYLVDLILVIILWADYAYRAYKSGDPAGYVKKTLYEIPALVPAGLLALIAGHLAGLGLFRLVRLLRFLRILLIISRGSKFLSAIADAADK
# T7: VSDK S51A (UniProt Q9YDF8 19-160, S51A)
# T7 sequence: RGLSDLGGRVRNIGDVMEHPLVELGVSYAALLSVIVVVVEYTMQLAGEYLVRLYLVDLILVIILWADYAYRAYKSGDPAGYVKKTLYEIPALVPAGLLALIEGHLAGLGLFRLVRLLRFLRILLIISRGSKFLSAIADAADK
# T8: isolated voltage-sensor domain of the voltage-gated potassium channel KvAP (VSDK), wild type (UniProt Q9YDF8 19-160)
# T8 construct: also called WT VSDK; KvAP voltage sensor
# T8 sequence: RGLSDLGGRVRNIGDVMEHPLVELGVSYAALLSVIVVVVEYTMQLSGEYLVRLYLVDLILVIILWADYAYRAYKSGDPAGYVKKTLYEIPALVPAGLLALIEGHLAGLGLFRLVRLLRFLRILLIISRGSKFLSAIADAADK
# B1: VSTx1 (recombinant, wild type) (peptide)
# chain: SECGKFMWKCKNSNDCCKDLVCSSRWKWCVLASPF
# notes: also called WT VSTx1; spider-venom peptide VSTx1; not shown: His6, N-terminal, cleaved; MBP, N-terminal, cleaved
# How the values were obtained:
# [1] = Liposome centrifugation assay, POPG liposomes; type: physicochemical; conditions: LUVs extruded through 0.1 μm filters, 10 mM HEPES pH 7.4, 150 mM NaCl; 10 μM toxin, 1 h room temperature, 30 min at 100,000 g; unbound toxin in supernatant by RP-HPLC; fit to partition equilibrium equation
# Protocol: To investigate whether the micelle-binding interface identified by NMR-CSM faithfully reports on the lipid-binding interface of the peptide we used a previously reported liposome centrifugation assay[30] to study the interaction between VSTx1 and phospholipids with different head groups. VSTx1 was incubated with liposomes of different composition, then the liposomes were pelleted using ultracentrifugation and the amount of unbound VSTx1 in the supernatant was determined using reverse-phase (RP) HPLC (Fig. 4a,b). Partition coefficients (Kp) for binding of VSTx1 to liposomes were calculated by fitting to the partition equilibrium equation (see Eqn (3) in Materials and Methods). The Kp for binding to 1-palmitoyl-2-oleoyl-sn-glycero-3-phosphoglycerol (POPG) liposomes was 2.4 × 10^5 while the Kp values for binding to POPC or 1-palmitoyl-2-oleoyl-sn-glycero-3-phosphoethanolamine (POPE) liposomes were close to 0 (both <10^2) (Fig. 4e).
# Large unilamellar vesicles (LUVs) were prepared by drying lipids (POPG and/or POPC, 25 mg/mL) under nitrogen gas, drying the lipid pellet under vacuum, and resuspending the lipids by vortexing for 1 h in an aqueous buffer containing 10 mM HEPES pH 7.4, and 150 mM NaCl. Vesicles were extruded 20 times using 0.1 μm polycarbonate filters (Avanti Polar Lipids, Inc.). Aqueous solutions of the toxin (10 μM) were incubated with varying amounts of vesicles for 1 h at room temperature, then the vesicles were centrifuged for 30 min at 100,000 g before the toxin concentration in the aqueous phase was determined. Aqueous concentrations of VSTx1 were quantified by RP-HPLC using a monolithic C18 column (4.6 × 100 mm). The toxin was eluted with a linear gradient of 10–50% solvent B (0.046% TFA in acetonitrile) in solvent A (0.05% TFA in water) over 10 min at a flow rate of 3 ml/min. The partition coefficients (Kp) for the binding of VSTx1 to liposomes were calculated by fitting to the partition equilibrium equation: […]
# [2] = molecular target: isolated voltage-sensor domain of the voltage-gated potassium channel KvAP (VSDK), wild type (UniProt Q9YDF8); test: pull-down
# [3] = molecular target: T1, VSDK E45A; test: pull-down; conditions: both partners purified
# [4] = molecular target: T2, VSDK R120A; test: pull-down; conditions: both partners purified
# [5] = molecular target: T3, VSDK Q49A; test: pull-down; conditions: both partners purified
# [6] = molecular target: T4, VSDK T47A; test: pull-down; conditions: both partners purified
# [7] = molecular target: T5, VSDK Y46A; test: pull-down; conditions: both partners purified
# [8] = molecular target: T6, VSDK E107A; test: pull-down; conditions: both partners purified
# [9] = molecular target: T7, VSDK S51A; test: pull-down; conditions: both partners purified
# [10] = molecular target: T8, isolated voltage-sensor domain of the …; test: NMR titration; conditions: both partners purified
molecule,measurement,setting,value
"CSCC[C@@H]1NC(=O)[C@H](Cc2ccccc2)NC(=O)[C@H](CCCCN)NC(=O)CNC(=O)[C@@H](NC(=O)[C@H](CCC(=O)O)NC(=O)[C@@H](N)CO)CSSC[C@@H]2NC(=O)[C@@H]3CSSC[C@@H](C(=O)N[C@H](C(=O)N[C@@H](CC(C)C)C(=O)N[C@@H](C)C(=O)N[C@@H](CO)C(=O)N4CCC[C@H]4C(=O)N[C@@H](Cc4ccccc4)C(=O)O)C(C)C)NC(=O)[C@H](Cc4c[nH]c5ccccc45)NC(=O)[C@H](CCCCN)NC(=O)[C@H](Cc4c[nH]c5ccccc45)NC(=O)[C@H](CCCNC(=N)N)NC(=O)[C@H](CO)NC(=O)[C@H](CO)NC(=O)[C@H](CSSC[C@H](NC(=O)[C@H](CCCCN)NC(=O)[C@H](Cc4c[nH]c5ccccc45)NC1=O)C(=O)N[C@@H](CCCCN)C(=O)N[C@@H](CC(N)=O)C(=O)N[C@@H](CO)C(=O)N[C@@H](C)C(=O)N[C@@H](CC(=O)O)C(=O)N3)NC(=O)[C@H](C(C)C)NC(=O)[C@H](CC(C)C)NC(=O)[C@H](CC(=O)O)NC(=O)[C@H](CCCCN)NC2=O [N13A] (H-SECGKFMWKCKNSADCCKDLVCSSRWKWCVLASPF-OH; disulfide 3-17, 10-22, 16-29)",Partition coefficient (Kp) for binding to POPG liposomes,[1],2.7 × 10^5
"CSCC[C@@H]1NC(=O)[C@H](Cc2ccccc2)NC(=O)[C@H](CCCCN)NC(=O)CNC(=O)[C@@H](NC(=O)[C@H](CCC(=O)O)NC(=O)[C@@H](N)CO)CSSC[C@@H]2NC(=O)[C@@H]3CSSC[C@@H](C(=O)N[C@H](C(=O)N[C@@H](CC(C)C)C(=O)N[C@@H](C)C(=O)N[C@@H](CO)C(=O)N4CCC[C@H]4C(=O)N[C@@H](Cc4ccccc4)C(=O)O)C(C)C)NC(=O)[C@H](Cc4c[nH]c5ccccc45)NC(=O)[C@H](CCCCN)NC(=O)[C@H](Cc4c[nH]c5ccccc45)NC(=O)[C@H](CCCNC(=N)N)NC(=O)[C@H](CO)NC(=O)[C@H](CO)NC(=O)[C@H](CSSC[C@H](NC(=O)[C@H](CCCCN)NC(=O)[C@H](C)NC1=O)C(=O)N[C@@H](CCCCN)C(=O)N[C@@H](CC(N)=O)C(=O)N[C@@H](CO)C(=O)N[C@@H](CC(N)=O)C(=O)N[C@@H](CC(=O)O)C(=O)N3)NC(=O)[C@H](C(C)C)NC(=O)[C@H](CC(C)C)NC(=O)[C@H](CC(=O)O)NC(=O)[C@H](CCCCN)NC2=O [W7A] (H-SECGKFMAKCKNSNDCCKDLVCSSRWKWCVLASPF-OH; disulfide 3-17, 10-22, 16-29)",Partition coefficient (Kp) for binding to POPG liposomes,[1],0.77 × 10^5
VSTx1 W7A (peptide),percent decrease in binding against wild-type VSTx1,[2],58%
"CSCC[C@@H]1NC(=O)[C@H](Cc2ccccc2)NC(=O)[C@H](CCCCN)NC(=O)CNC(=O)[C@@H](NC(=O)[C@H](CCC(=O)O)NC(=O)[C@@H](N)CO)CSSC[C@@H]2NC(=O)[C@@H]3CSSC[C@@H](C(=O)N[C@H](C(=O)N[C@@H](CC(C)C)C(=O)N[C@@H](C)C(=O)N[C@@H](CO)C(=O)N4CCC[C@H]4C(=O)N[C@@H](Cc4ccccc4)C(=O)O)C(C)C)NC(=O)[C@H](Cc4c[nH]c5ccccc45)NC(=O)[C@H](CCCCN)NC(=O)[C@H](Cc4c[nH]c5ccccc45)NC(=O)[C@H](C)NC(=O)[C@H](CO)NC(=O)[C@H](CO)NC(=O)[C@H](CSSC[C@H](NC(=O)[C@H](CCCCN)NC(=O)[C@H](Cc4c[nH]c5ccccc45)NC1=O)C(=O)N[C@@H](CCCCN)C(=O)N[C@@H](CC(N)=O)C(=O)N[C@@H](CO)C(=O)N[C@@H](CC(N)=O)C(=O)N[C@@H](CC(=O)O)C(=O)N3)NC(=O)[C@H](C(C)C)NC(=O)[C@H](CC(C)C)NC(=O)[C@H](CC(=O)O)NC(=O)[C@H](CCCCN)NC2=O [R24A] (H-SECGKFMWKCKNSNDCCKDLVCSSAWKWCVLASPF-OH; disulfide 3-17, 10-22, 16-29)",Partition coefficient (Kp) for binding to POPG liposomes,[1],0.11 × 10^5
"CSCC[C@@H]1NC(=O)[C@H](Cc2ccccc2)NC(=O)[C@H](CCCCN)NC(=O)CNC(=O)[C@@H](NC(=O)[C@H](CCC(=O)O)NC(=O)[C@@H](N)CO)CSSC[C@@H]2NC(=O)[C@@H]3CSSC[C@@H](C(=O)N[C@H](C(=O)N[C@@H](C)C(=O)N[C@@H](C)C(=O)N[C@@H](CO)C(=O)N4CCC[C@H]4C(=O)N[C@@H](Cc4ccccc4)C(=O)O)C(C)C)NC(=O)[C@H](Cc4c[nH]c5ccccc45)NC(=O)[C@H](CCCCN)NC(=O)[C@H](Cc4c[nH]c5ccccc45)NC(=O)[C@H](CCCNC(=N)N)NC(=O)[C@H](CO)NC(=O)[C@H](CO)NC(=O)[C@H](CSSC[C@H](NC(=O)[C@H](CCCCN)NC(=O)[C@H](Cc4c[nH]c5ccccc45)NC1=O)C(=O)N[C@@H](CCCCN)C(=O)N[C@@H](CC(N)=O)C(=O)N[C@@H](CO)C(=O)N[C@@H](CC(N)=O)C(=O)N[C@@H](CC(=O)O)C(=O)N3)NC(=O)[C@H](C(C)C)NC(=O)[C@H](CC(C)C)NC(=O)[C@H](CC(=O)O)NC(=O)[C@H](CCCCN)NC2=O [L30A] (H-SECGKFMWKCKNSNDCCKDLVCSSRWKWCVAASPF-OH; disulfide 3-17, 10-22, 16-29)",Partition coefficient (Kp) for binding to POPG liposomes,[1],0.55 × 10^5
"CSCC[C@@H]1NC(=O)[C@H](Cc2ccccc2)NC(=O)[C@H](CCCCN)NC(=O)CNC(=O)[C@@H](NC(=O)[C@H](CCC(=O)O)NC(=O)[C@@H](N)CO)CSSC[C@@H]2NC(=O)[C@@H]3CSSC[C@@H](C(=O)N[C@H](C(=O)N[C@@H](CC(C)C)C(=O)N[C@@H](C)C(=O)N[C@@H](CO)C(=O)N4CCC[C@H]4C(=O)N[C@@H](Cc4ccccc4)C(=O)O)C(C)C)NC(=O)[C@H](Cc4c[nH]c5ccccc45)NC(=O)[C@H](CCCCN)NC(=O)[C@H](Cc4c[nH]c5ccccc45)NC(=O)[C@H](CCCNC(=N)N)NC(=O)[C@H](CO)NC(=O)[C@H](CO)NC(=O)[C@H](CSSC[C@H](NC(=O)[C@H](C)NC(=O)[C@H](Cc4c[nH]c5ccccc45)NC1=O)C(=O)N[C@@H](CCCCN)C(=O)N[C@@H](CC(N)=O)C(=O)N[C@@H](CO)C(=O)N[C@@H](CC(N)=O)C(=O)N[C@@H](CC(=O)O)C(=O)N3)NC(=O)[C@H](C(C)C)NC(=O)[C@H](CC(C)C)NC(=O)[C@H](CC(=O)O)NC(=O)[C@H](CCCCN)NC2=O [K8A] (H-SECGKFMWACKNSNDCCKDLVCSSRWKWCVLASPF-OH; disulfide 3-17, 10-22, 16-29)",Partition coefficient (Kp) for binding to POPG liposomes,[1],0.38 × 10^5
VSTx1 K8A (peptide),percent decrease in binding against wild-type VSTx1,[2],20%
B1,percent decrease in binding against wild-type VSDK,[3],65%
same,binding result,[4],binds
same,percent decrease in binding against wild-type VSDK,[5],58%
same,binding result,[6],binds
same,binding result,[7],binds
same,percent decrease in binding against wild-type VSDK,[8],59%
same,binding result,[9],binds
same,Kd,[10],140 µM
